Reference: the nanobody polyreactivity screen of Harvey et al. (2022)

Test: yeast display, Sf9 membrane polyspecificity reagent, FACS + sequencing; frameworks hold sequencing errors
Procedure, shortened: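 Nanobodies from a synthetic yeast display library (Saccharomyces cerevisiae BJ5465), induced 36–48 hours with galactose, were stained 1 hour at 4 °C with 10% biotinylated, detergent-solubilized Sf9 membrane reagent, enriched on streptavidin microbeads, then FACS-sorted. Anti-HA (expression) and streptavidin (reagent binding) fluorescence set low and high (top ~1%) gates. Polyreactivity labels come from the gate of origin. Genes were colony-PCR amplified, MiSeq 2 × 250 sequenced and filtered by CDR length.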

Sequence | polyreactivity (PSR sort gate)
QVQLVESGGGLVQAGGSLRLSCAASGFTFNGKSMGLYRQAPGKERELVAAISYSGGSTYYADSVKGRFTISRDYAKNTVYLQMNSLKPEDTSVYYCAADRTAYSVRGYTKVHSGHDYWGQGTQVSVSS | low polyreactivity
QVQLVESGGGLVQAGGSLRLSCAASGFTFNKYAMGWYRQEPGKERELVAAISVSGSRTYYADSVKGRFTISRDNAKNTFYLQMNSLKPEDTAVYYCAATHYSQVSDDYWGQGTQVTVSS | high polyreactivity
QVQLVESGGGLVQAGGSLRLSCAASGFTFNKYDMGWYRQAPGKERELVAVITWSGGSTYYADSVKGRFTISRDNAKNTVYLQMKSLKPEDTAVYYCNAEAPRYTYGRMDYWGQGTQVTVSS | low polyreactivity
QVQLVESGGGLVQAGGSLRLSCAASGFTFNNYAMGWYRQAPGKERELVAAISSVGRTYYADSVKGRFTISRDNAKNTVYLQLNSLKPEDTAVYYCAVVYPARGSGNDSWGQGTQVTLSS | high polyreactivity
QVQLVESGGGLVQAGGSLRLSCAASGFTFNPNAMGWYRQAPGKERELVAAITWSSGRTYYADSVKGRFTISRDNAKNTVYLQMNSLKPEDTAVYYCAARGYSYNYDYWGQGTQVTVSS | high polyreactivity
QVQLVESGGGLVQAGGSLRLSCAASGFTFNRNAMGWYIQAPGKERELVAAISWSGGSTYYADSVKGRFTISRDNAKNTVYLQMNSLKPEDTAVYYCAKGYRRVYGPFYYWGQGTQVTVSS | low polyreactivity
QVQLVESGGGLVQAGGSLRLSCAASGFTFNRYAMGWYRQAPGKERELVAAISRSTATTYYADSVKGRFTISRDNAKNTVYLQMNSLKPEDTAVYYCNAPQRYWPPYGYWGQGTQVTVSS | high polyreactivity
QVQLVESGGGLVQAGGSLRLSCAASGFTFNWYAMAWYRQAPGKERELVATINSGGSTYYADSVKGRFTISRDNAKNTVYLQMISLKPEDTAVYYCNRTHRRRYVKSAYIYWGQGTQVTVSS | low polyreactivity
QVQLVESGGGLVQAGGSLRLSCAASGFTFNYYAMGGYRQAPGKERELVAAIDSGTSTNYADSVKGRFTISRDNAKNTVYLQMNSLKPEDTAVYYCAADPGIFDGIFDYWGQGSQVTVSS | low polyreactivity
QVQLVESGGGLVQAGGSLRLSCAASGFTFNYYAMGWYRQAPGTERELVAAITSSGGSTYYADSVKGRFTISRDNAKNTVYLLMNSLKPEDTAVYYCNAAVYDHRYIYGFDYWGQGTQVTVSS | high polyreactivity
QVQLVESGGGLVQAGGSLRLSCAASGFTFPAYVMRWYRQAPGKERELVAAISKSGGSTYYADSVKGRFTISRDNAKNTVYLQMNCLKPEDTAVYYCAKYWVTRRFQYDYWGQGTQVTVSS | high polyreactivity
QVQLVESGGGLVQAGGSLRLSCAASGFTFPDYAMGWYRQAPAKERELVAAISSDGSTYYADSVNGRFTISRDNAHNTVYLQMNSLKPEDTAVYYCAAYVVWLYGYDYWGQGTQVTVSS | low polyreactivity
QVQLVESGGGLVQAGGSLRLSCAASGFTFPGYARGWYRQAPGKERELVAAISRGGAGTYYADSVKGRFTISRDNAKNTVYLQMNSLKPEDTAVYYCAAVYYVDYPDGNYEYWGQGTQVTVSS | high polyreactivity
QVQLVESGGGLVQAGGSLRLSCAASGFTFPGYTMGWYRQAPGKERELVAAITWSGGSTYYADSVKGRFTISRDTAKNTVYLQMNSLKPEDTAVYYCAAKYGAYYGNRDYWGQGTQVTVSS | high polyreactivity
QVQLVESGGGLVQAGGSLRLSCAASGFTFPHYAMGRYRQAPGKERELVAAINGGDTRTYYADSVKGRFTSSRDNAKNTVYLQRNSLKPEDTAVYYCAADREAGGTRLSRDYYWGQGTQVTVSS | high polyreactivity
QVQLVESGGGLVQAGGSLRLSCAASGFTFPKYAMGWYRQAPGKERELVAAISYRGGSTYYADSVKGRFTISRDNAKNTVYLQMNSLKPEDTAVYYCAAEIPHAPYEYWGQGTQVTVSS | high polyreactivity

Sequence | polyreactivity (PSR sort gate)
QVQLVESGGGLVQAGGSLRLSCAASGFTFPLYAMGWYRQAPGKERELVAVISRSGGSTYYADSVKGRFTISRDNAKNTVYLQMNSLKPEDTAVYYCATRRRPQYNKYDYWGQGTQVTVSS | high polyreactivity
QVQLVESGGGLVQAGGSLRLSCAASGFTFPSNAMGWYRQAPGKERELVAAISSTDSTNYADSVKGRFTISRDNAKNTVYFQMNSLKPEDTAVYYCAKRYPRYRYNTRGNDYWGQGTQVTVSS | low polyreactivity
QVQLVESGGGLVQAGGSLRLSCAASGFTFPSNAMGWYRQAPGKERELVAAISSTDSTNYADSVKGRFTISRDNAKNTVYLQMNSLKPEDTAVYYCNADRDDDYDYWGQGTQVTVSS | low polyreactivity
QVQLVESGGGLVQAGGSLRLSCAASGFTFPSYTMGWYRQAPGKERELVAAISRSDGTTYYADSVKGRFTISRDNAKNTVYLQMNSLKPEDTAVYYCNKAYKRYGYHYDYWGQGTQVTVSS | high polyreactivity
QVQLVESGGGLVQAGGSLRLSCAASGFTFPVYAMGWSRQAPGKERELVAAISWSGGGTYYADSVKGRFTISRDNAKNTVYVQMNSLKPEDTAVYYCAVEDLSHAYVQHYRYGYGYWGQGTQVTVSS | low polyreactivity
QVQLVESGGGLVQAGGSLRLSCAASGFTFPVYVLGWYRQAPGKERELVAAISGGGGTSYADSVKGRFTISRDNAKNTVYLQMNSLKPEDTAVYYCAADYRTYVYVYGFRHFDYWGQGTQVTVSS | low polyreactivity
QVQLVESGGGLVQAGGSLRLSCAASGFTFPWNVMGWYRQAPGKERELVAAITYDGGGTYADSVKGRFTISRDNAKNTVYLQMNSLKPEDTAVYYSNADLIYGEEYDYWGQGTQVTVSS | low polyreactivity
QVQLVESGGGLVQAGGSLRLSCAASGFTFPWYAMVWYRQSPGKERELVASISYRGDSTYYADSVKGRFTISRDNAKNTVNLQMNILKPEDTAVYYCNKLLASYYLPGFDYWGQGTQVTVSS | low polyreactivity
QVQLVESGGGLVQAGGSLRLSCAASGFTFPYNAMGWYRQAPGKERELVAAISSGDSTYYADSVKGRFTISRDNAKNTVYLQMKSLKPEDTAVYYCDAYPSLYYTKYDYWGQGTQVTVSS | high polyreactivity
QVQLVESGGGLVQAGGSLRLSCAASGFTFPYNAMGWYRQAPGKERELVAAISWSGGSTYYADSVKGRFTISRDNAKNTVYLQMNSLKPEDTAVYYCAASYWRIPMEYWGQVTQVTVSS | high polyreactivity
QVQLVESGGGLVQAGGSLRLSCAASGFTFPYYAMGRYRQAPGKERELVAAITRSGGSTNYADSVKGRFTISRDNAKNTVYLQMNSLKPEDTAVYYCNAPPGYSSTRNGYWGQGTQVTVSS | high polyreactivity
QVQLVESGGGLVQAGGSLRLSCAASGFTFPYYAMGWYRPAPGKERELVAAISRNGGSTYYADSVKGRFTISRDNAKNTVYFQMNRLKPEDTAVYYCNKKWLGWADPSLDKRYDYWGQGTQVTVSS | high polyreactivity
QVQLVESGGGLVQAGGSLRLSCAASGFTFPYYAMGWYRQALGKERELVAGISRGGSTYYADSVKGRFTISRDNAKNTVYLQMNSLKPEDTAVYYCAADRYIGQYTYYYWGQGTQVTVSS | high polyreactivity
QVQLVESGGGLVQAGGSLRLSCAASGFTFPYYAMGWYRQAPGKERELVAAISSSGGRTYYADSVKGRFTISRDNAKNTVYLQMNSLKPEDTAVYYCAVRGKAYRRLRDYWGQGTQVTVSS | high polyreactivity
QVQLVESGGGLVQAGGSLRLSCAASGFTFPYYAQGWYRQAPGKETELVATISTGSGVSTYDADSVKGRFTISRDNAKNTVYLQMNSLKPEDTAVYYCAAVFGWRRYVTYDYWGQGTQVTVSS | low polyreactivity
QVQLVESGGGLVQAGGSLRLSCAASGFTFPYYTMGWYRQAPGKERELVAAITSSGGSTYYADSVKGRFTISRDNAKNTVYLQMNSLKPEDTAVYYCNAAVYAHRYIYGFDYWGQGTQVTVSS | high polyreactivity
